Results as given in patent US8404647B2, “Peptidylarginine deiminase (PAD) inhibitors” (Chiralix B.V., priority 2008, dated 2013).
Marks after values point to notes of the source that are not given here. Blank lines part the entries; values can stand above or below the substance they belong to. Ends that are not written are not given here.

Columns and labels:
PAD4 = PAD4 (Homo sapiens, UniProt Q9UM07); assay: Conversion (R to Cit) of substrate peptides by PAD4, mass spectrometry; format: biochemical; details: for Conversion (%): PAD4; for Conversion by PAD4 (%): Table 10; for Conversion: Table 7, PAD4, test system with 3 times less enzyme
From the text: From previous studies it was known that D-S-Q-F-A-F-R-G-A-S-A-S-D (designated here as L1: SEQ ID NO: 11) is a substrate for PAD2 and PAD 4. To obtain better substrates, and subsequently powerful inhibitors, we intended to identify structural elements that improve substrate properties. A set of 152 individual analog peptides was generated, each differing from L1 by one amino acid at one of the positions −4 to −1 or 1 to 4.
In Table 3 the conversion of each analog (R to Cit conversion) is depicted. Values of the analogs relate to the conversion of the analog compared to the conversion of L1 under standard conditions (100 means a conversion equal to L1, 50 means conversion of 50% of that of L1, 175 means conversion of 175% of that of L1). Numbers above 100 thus relate to amino acid substitutions that improve substrate properties.
Peptides of table 4 are represented by the following sequences SEQ ID NO: 22-31 and 33-46. Control peptide are represented by the following sequences SEQ ID NO: 11 as control L1 and SEQ ID NO: 32 as control L2. Unfortunately, a substantial number of designed peptides were too polar to be analyzed on our LC-MS system (indicated in Table 4 as n.t., not trapped on the column). We therefore also generated and tested these peptides containing two additional N-terminal F-residues to increase hydrophobicity. In this form peptides were trapped on the column and could be analyzed (see Table 5).
Based on the above results we designed 20 peptides containing multiple amino acids that improve substrate properties (see Table 7). The indicated peptides were synthesized and tested in order to identify the best substrate from this group. Here we used a test system with less enzyme (3 times less) compared to the experiments described above.
(§1) Conversion of arginine into citrulline in the substrate peptides by PAD2 or PAD4 using mass spectrometry was performed as follows. A candidate substrate peptide was incubated with a PAD as indicated for several hours at 37° C. The reaction was quenched by the addition with acetic acid. A sample was analysed on a Qtof mass spectrometer (Micromass, UK) and the mass spectrum was compared with that of the same peptide not treated with PAD. Normally, 2^+- and 3^+-ions are detected. The conversion (ΔM=0.98 Da) was calculated on the 2^+- and 3^+-ions individually, and subsequently averaged taking into account the relative peak height of the 2^+- and 3^+-signals (see FIG. 5).

PAD2 = PAD2 (Homo sapiens, UniProt Q9Y2J8); assay: Conversion (R to Cit) of substrate peptides by PAD2, mass spectrometry; format: biochemical; details: for Conversion by PAD2 (%): Table 10; for Conversion (%): Table 9, PAD2
Method: In a similar fashion as for PAD4 we identified improved peptide substrates for PAD2. Again L1 was used as a lead compound. The set of 152 peptides from Table 3 was used and testing was performed as described before.
as §1

[1] = Table 5, peptides with two additional N-terminal F-residues

PAD4, sequence (Q9UM07 whole entry): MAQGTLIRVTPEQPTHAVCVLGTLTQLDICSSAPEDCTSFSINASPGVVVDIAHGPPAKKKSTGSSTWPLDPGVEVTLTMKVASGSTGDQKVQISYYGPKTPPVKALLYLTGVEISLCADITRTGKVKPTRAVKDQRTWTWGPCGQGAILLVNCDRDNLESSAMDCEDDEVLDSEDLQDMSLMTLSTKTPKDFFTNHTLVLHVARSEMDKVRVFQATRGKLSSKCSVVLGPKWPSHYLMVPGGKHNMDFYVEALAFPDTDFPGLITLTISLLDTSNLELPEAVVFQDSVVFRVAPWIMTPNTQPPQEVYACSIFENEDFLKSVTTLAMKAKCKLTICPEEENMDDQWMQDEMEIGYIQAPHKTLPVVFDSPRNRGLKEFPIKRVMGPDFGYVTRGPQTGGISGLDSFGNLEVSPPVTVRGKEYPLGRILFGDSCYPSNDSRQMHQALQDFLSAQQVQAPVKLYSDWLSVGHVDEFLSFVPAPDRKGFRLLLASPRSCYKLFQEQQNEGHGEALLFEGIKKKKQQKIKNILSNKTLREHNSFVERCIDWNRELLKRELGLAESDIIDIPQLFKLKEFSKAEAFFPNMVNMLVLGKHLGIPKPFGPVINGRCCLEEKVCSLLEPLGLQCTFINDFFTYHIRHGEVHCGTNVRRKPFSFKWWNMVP
PAD2, sequence (Q9Y2J8 whole entry): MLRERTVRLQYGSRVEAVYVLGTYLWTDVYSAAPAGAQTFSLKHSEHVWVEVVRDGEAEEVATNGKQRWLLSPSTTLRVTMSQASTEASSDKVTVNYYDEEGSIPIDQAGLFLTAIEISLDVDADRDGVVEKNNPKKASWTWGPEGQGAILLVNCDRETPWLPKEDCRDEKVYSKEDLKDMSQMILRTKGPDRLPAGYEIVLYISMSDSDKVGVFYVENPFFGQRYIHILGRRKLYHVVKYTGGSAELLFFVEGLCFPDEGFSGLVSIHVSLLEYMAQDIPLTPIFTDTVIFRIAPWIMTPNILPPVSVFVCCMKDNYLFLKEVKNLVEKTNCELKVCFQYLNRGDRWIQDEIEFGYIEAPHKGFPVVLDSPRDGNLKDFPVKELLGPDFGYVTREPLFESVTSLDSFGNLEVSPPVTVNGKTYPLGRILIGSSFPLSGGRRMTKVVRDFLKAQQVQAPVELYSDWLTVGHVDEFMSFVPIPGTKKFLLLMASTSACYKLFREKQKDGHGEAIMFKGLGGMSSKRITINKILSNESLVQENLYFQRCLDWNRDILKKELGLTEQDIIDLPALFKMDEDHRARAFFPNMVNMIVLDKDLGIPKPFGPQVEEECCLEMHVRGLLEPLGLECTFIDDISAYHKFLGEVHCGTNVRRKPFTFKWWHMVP

Substance: D-S-H-H-F-H-R-E-Y-I-F-S-D (DSHHFHREYIFSD; not fully specified (C-terminus); printed as D-S-H-H-F-H-R-E-Y-I-F-S-D) [Peptide 0608-38]
Conversion (%) (PAD4; Table 4, 13-mer peptides): 90%

Substance: D-S-H-H-L-S-R-D-F-M-Y-S-D (DSHHLSRDFMYSD; not fully specified (C-terminus); printed as D-S-H-H-L-S-R-D-F-M-Y-S-D) [Peptide 0608-39]
Conversion (%) (PAD4; Table 4, 13-mer peptides): 95%

Substance: D-S-H-H-W-D-R-E-W-F-W-S-D (DSHHWDREWFWSD; not fully specified (C-terminus); printed as D-S-H-H-W-D-R-E-W-F-W-S-D) [Peptide 0608-40]
Conversion (%) (PAD4; Table 4, 13-mer peptides): 100%

Substance: D-S-H-K-F-D-R-D-F-I-Y-S-D (DSHKFDRDFIYSD; not fully specified (C-terminus); printed as D-S-H-K-F-D-R-D-F-I-Y-S-D) [Peptide 0608-43]
Conversion (%) (PAD4; Table 4, 13-mer peptides): 100% | Conversion by PAD4 (%) (PAD4): 79% | Conversion by PAD2 (%) (PAD2): 90 ** %

Substance: D-S-H-K-H-S-R-E-W-L-W-S-D (DSHKHSREWLWSD; not fully specified (C-terminus); printed as D-S-H-K-H-S-R-E-W-L-W-S-D) [Peptide 0608-36]
Conversion (%) (PAD4; Table 4, 13-mer peptides): 90% | Conversion by PAD4 (%) (PAD4): 51% | Conversion by PAD2 (%) (PAD2): 97%

Substance: D-S-H-K-L-D-R-E-Y-M-F-S-D (DSHKLDREYMFSD; not fully specified (C-terminus); printed as D-S-H-K-L-D-R-E-Y-M-F-S-D) [Peptide 0608-34]
Conversion (%) (PAD4; Table 4, 13-mer peptides): 90%

Substance: D-S-H-K-L-H-R-E-W-M-W-S-D (DSHKLHREWMWSD; not fully specified (C-terminus); printed as D-S-H-K-L-H-R-E-W-M-W-S-D) [Peptide 0608-44]
Conversion (%) (PAD4; Table 4, 13-mer peptides): 95%

Substance: D-S-H-K-W-H-R-D-F-F-Y-S-D (DSHKWHRDFFYSD; not fully specified (C-terminus); printed as D-S-H-K-W-H-R-D-F-F-Y-S-D) [Peptide 0608-35]
Conversion by PAD4 (%) (PAD4): 73% | Conversion by PAD2 (%) (PAD2): 92%

Substance: D-S-K-H-K-D-R-E-Y-V-F-S-D (DSKHKDREYVFSD; not fully specified (C-terminus); printed as D-S-K-H-K-D-R-E-Y-V-F-S-D) [Peptide 0608-22]
Conversion (%) (PAD4; Table 4, 13-mer peptides): 90%

Substance: D-S-K-K-W-S-R-E-Y-F-F-S-D (DSKKWSREYFFSD; not fully specified (C-terminus); printed as D-S-K-K-W-S-R-E-Y-F-F-S-D) [Peptide 0608-30]
Conversion (%) (PAD4; Table 4, 13-mer peptides): 90%

Substance: F-F-D-S-H-H-K-D-R-D-H-V-E-S-D (FFDSHHKDRDHVESD) [Peptide 0612-39]
Conversion (%) (PAD4; [1]): 100%

Substance: F-F-D-S-H-K-L-D-R-E-Y-M-F-S-D (FFDSHKLDREYMFSD) [Peptide 0612-36]
Conversion (%) (PAD4; [1]): 100%

Substance: F-F-D-S-K-H-F-H-R-D-F-I-Y-S-D (FFDSKHFHRDFIYSD) [Peptide 0612-25]
Conversion (%) (PAD4; [1]): 100%

Substance: F-F-D-S-K-H-H-H-R-E-Y-L-F-S-D (FFDSKHHHREYLFSD) [Peptide 0612-28]
Conversion (%) (PAD4; [1]): 100%

Substance: F-F-D-S-K-H-H-S-R-D-H-L-E-S-D (FFDSKHHSRDHLESD) [Peptide 0612-23]
Conversion (%) (PAD4; [1]): 100%

Substance: F-F-D-S-K-H-K-D-R-E-Y-V-F-S-D (FFDSKHKDREYVFSD) [Peptide 0612-24]
Conversion (%) (PAD4; [1]): 100%

Substance: F-F-D-S-K-H-W-D-R-D-H-F-E-S-D (FFDSKHWDRDHFESD) [Peptide 0612-27]
Conversion (%) (PAD4; [1]): 100%

Substance: F-F-D-S-K-K-H-D-R-D-F-L-Y-S-D (FFDSKKHDRDFLYSD) [Peptide 0612-33]
Conversion (%) (PAD4; [1]): 100%

Substance: F-F-D-S-K-K-L-H-R-D-H-M-E-S-D (FFDSKKLHRDHMESD) [Peptide 0612-31]
Conversion (%) (PAD4; [1]): 88%

Second part, the substance after the results:

Conversion (PAD4): 53
Substance: D-S-H-K-F-D-R-D-F-L-Y-S-D (DSHKFDRDFLYSD; not fully specified (C-terminus); printed as D-S-H-K-F-D-R-D-F-L-Y-S-D) [Peptide 0708-28]

Conversion by PAD4 (%) (PAD4): 25% | Conversion (%) (PAD2): 90% | Conversion by PAD2 (%) (PAD2): 90%
Substance: D-S-K-F-A-F-R-G-G-I-A-S-D (DSKFAFRGGIASD; not fully specified (C-terminus); printed as D-S-K-F-A-F-R-G-G-I-A-S-D) [Peptide 0735-41]

Conversion by PAD4 (%) (PAD4): <20% | Conversion (%) (PAD2): 92% | Conversion by PAD2 (%) (PAD2): 92%
Substance: D-S-K-F-H-F-R-Y-A-V-A-S-D (DSKFHFRYAVASD; not fully specified (C-terminus); printed as D-S-K-F-H-F-R-Y-A-V-A-S-D) [Peptide 0735-35]

Conversion (PAD4): 51
Substance: D-S-K-K-F-D-R-D-F-L-F-S-D (DSKKFDRDFLFSD; not fully specified (C-terminus); printed as D-S-K-K-F-D-R-D-F-L-F-S-D) [Peptide 0708-27]

Conversion (PAD4): 53
Substance: D-S-K-K-H-D-R-D-H-L-F-S-D (DSKKHDRDHLFSD; not fully specified (C-terminus); printed as D-S-K-K-H-D-R-D-H-L-F-S-D) [Peptide 0708-21]

Conversion (PAD4): 35
Substance: D-S-K-K-H-D-R-D-K-L-F-S-D (DSKKHDRDKLFSD; not fully specified (C-terminus); printed as D-S-K-K-H-D-R-D-K-L-F-S-D) [Peptide 0708-24]

Conversion (PAD4): 70
Substance: D-S-K-W-F-D-R-D-H-L-Y-S-D (DSKWFDRDHLYSD; not fully specified (C-terminus); printed as D-S-K-W-F-D-R-D-H-L-Y-S-D) [Peptide 0708-16]

Conversion (%) (PAD2): 59%
Substance: D-S-M-C-A-F-R-G-A-K-K-S-D (DSMCAFRGAKKSD) [Peptide 0735-31]

Conversion (PAD4): 38
Substance: D-S-N-K-H-H-R-D-H-L-Y-S-D (DSNKHHRDHLYSD) [Peptide 0708-17]

Conversion (PAD4): 45
Substance: D-S-N-W-H-H-R-D-H-L-Y-S-D (DSNWHHRDHLYSD) [Peptide 0708-19]

Conversion (%) (PAD2): 73%
Substance: D-S-Q-C-L-F-R-G-A-F-A-S-D (DSQCLFRGAFASD) [Peptide 0735-40]

Conversion (%) (PAD2): 65%
Substance: D-S-Q-F-A-F-R-G-A-F-W-S-D (DSQFAFRGAFWSD) [Peptide 0735-30]

Conversion (%) (PAD2): 85%
Substance: D-S-Q-F-A-F-R-H-F-S-A-S-D (DSQFAFRHFSASD) [Peptide 0735-32]

Conversion (%) (PAD2): 35%
Substance: D-S-Q-F-A-H-R-N-A-S-A-S-D (DSQFAHRNASASD) [Peptide 0735-28]

Conversion (%) (PAD2): 74%
Substance: D-S-Q-F-A-Y-R-N-A-K-A-S-D (DSQFAYRNAKASD) [Peptide 0735-36]

Conversion (%) (PAD2): 80%
Substance: D-S-Q-F-K-F-R-G-A-F-A-S-D (DSQFKFRGAFASD) [Peptide 0735-39]

Conversion (%) (PAD2): 82%
Substance: D-S-Q-W-A-F-R-G-A-F-A-S-D (DSQWAFRGAFASD) [Peptide 0735-33]

Conversion (%) (PAD2): 82%
Substance: D-S-Q-W-A-F-R-N-A-F-A-S-D (DSQWAFRNAFASD) [Peptide 0735-38]

Conversion (%) (PAD2): 70%
Substance: D-S-W-K-A-F-R-G-A-S-A-S-D (DSWKAFRGASASD) [Peptide 0735-29]

Conversion (PAD4): 18
Substance: D-S-W-W-H-K-R-D-K-L-Y-S-D (DSWWHKRDKLYSD) [Peptide 0708-23]

Conversion (%) (PAD4; [1]): 98%
Substance: F-F-D-S-H-H-L-S-R-D-F-M-Y-S-D (FFDSHHLSRDFMYSD) [Peptide 0612-41]

Conversion (%) (PAD4; [1]): 100%
Substance: F-F-D-S-H-H-W-D-R-E-W-F-W-S-D (FFDSHHWDREWFWSD) [Peptide 0612-42]

Conversion (%) (PAD4; [1]): 100%
Substance: F-F-D-S-H-K-H-H-R-D-H-L-E-S-D (FFDSHKHHRDHLESD) [Peptide 0612-43]

Conversion (%) (PAD4; [1]): 100%
Substance: F-F-D-S-H-K-W-S-R-D-H-F-E-S-D (FFDSHKWSRDHFESD) [Peptide 0612-47]
